The results in this text go back to patent US20190160076A1 (University of California, published 2019).

This test has as its target T1, V5-tagged human lipoprotein lipase (LPL) (human, UniProt P06858 28-475).
T1 construct: also called V5-tagged human LPL; V5-LPL; not shown: V5 tag
T1 sequence: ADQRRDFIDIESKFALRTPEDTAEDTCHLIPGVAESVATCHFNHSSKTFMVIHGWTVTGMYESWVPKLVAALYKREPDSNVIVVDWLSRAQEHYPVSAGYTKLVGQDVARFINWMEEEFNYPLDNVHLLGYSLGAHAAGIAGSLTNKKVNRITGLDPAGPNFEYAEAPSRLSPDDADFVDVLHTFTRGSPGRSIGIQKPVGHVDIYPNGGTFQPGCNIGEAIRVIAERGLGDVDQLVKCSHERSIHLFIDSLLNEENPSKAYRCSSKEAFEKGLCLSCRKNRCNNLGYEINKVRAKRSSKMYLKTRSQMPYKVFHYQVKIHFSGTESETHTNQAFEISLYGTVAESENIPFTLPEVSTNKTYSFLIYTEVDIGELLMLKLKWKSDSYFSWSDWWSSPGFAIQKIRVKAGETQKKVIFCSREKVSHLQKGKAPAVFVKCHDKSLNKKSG
In words: cell-based LPL binding, western blot of CHO cell extracts (FIG. 4A). As for the experimental part: FIG. 4A-B. GPIHBP1 Autoantibodies Block the Binding of LPL to GPIHBP1. […] The LPL used in these experiments was V5-tagged. Western blots were performed with a goat antibody against the S-protein tag (Abcam, 5 μg/ml), followed by an IRDye 680-donkey anti-goat IgG (LI_COR, 1:2000; GPIHBP1) and an IRDye 800-V5 antibody (1:500; LPL). Actin was used as a loading control, and was detected with a rabbit antibody against actin (Abcam, 5 μg/ml) followed by an IRDye 800-donkey anti-rabbit IgG (LI-COR, 1:2000; lower panel). […] In lane 5, pre-incubation of cells with plasma 38 (1:20) abolished LPL binding. […] In lane 2, a mutant GPIHBP1 (GPIHBP1-W109S), which lacks the ability to bind LPL, was included as a control. […] DNA was stained with DAPI (fourth column).
Expression vectors for S-protein-tagged wild-type (wt) GPIHBP1, GPIHBP1-G175R, and GPIHBP1-W109S (or the empty vector) were transfected into CHO pgsA-745 cells or human umbilical vein endothelial cells (HUVEC). After 1 day, the cells were washed three times in PBS and incubated for 1 h at 4° C. with V5-tagged human LPL (900 ng/well). Then the cells were washed six times in PBS, and cell lysates were collected in RIPA buffer (Sigma) containing a protease inhibitor cocktail (Roche). […]

B1: S-protein-tagged wild-type human GPIHBP1 (GPIHBP1-wt) expressed on transfected CHO pgsA-745 cells (receptor)
chain: QTQQEEEEEDEDHGPDDYDEEDEDEVEEEETNRLPGGRSRVLLRCYTCKSLPRDERCNLTQNCSHGQTCTTLIAHGNTESGLLTTHSTWCTDSCQPITKTVEGTQVTMTCCQSSLCNVPPWQSSRVQDPTG
notes: also called GPIHBP1-transfected cells; GPIHBP1-expressing cells; not shown: S-protein tag
B1: the binding result is recorded as “binds”.
